Data set [1] relates to Drosophila model of LRRK2 G2019S neurodegeneration. Nature of the data set: Drosophila adult survival: Rab modifier screen of the LRRK2 G2019S early adult lethality phenotype. It is filed as in vivo. The conditions noted are these: for Average adult lifespan: TH-driven Rab GTPase transgene co-expressed with LRRK2 G2019S in Drosophila dopamine neurons, days post-eclosion; for rescue of the LRRK2 G2019S premature mortality phenotype (survival): co-expression with LRRK2 G2019S in Drosophila dopamine neurons. The source says:
To pursue potential mechanisms of LRRK2 pathology in vivo, a Drosophila model was established. […] Dopamine neuron-selective expression of human familial PD-associated G2019S-mutant LRRK2—using either a tyrosine hydroxylase (TH) (Friggi-Grelin et al., 2003) or dopa decarboxylase (DDC) promoter-Gal4 driver (Fischer et al., 1988)—induced premature mortality of young adult animals (FIG. 4A; nontransgenic mean lifespan 37.1 days+/−1; G2019S mean lifespan 4.8 days+/−0.2), akin to previous reports (Ng et al., 2009).
Subsequently a targeted screen for potential genetic modifiers of the LRRK2 G2019S mutant phenotype was performed, based on the idea that LRRK2 may modify a specific intracellular trafficking process, and focused on RAB7L1. A series of 16 Drosophila Rab genes, (see Table 4; out of 33 identified in Drosophila), or CA or IN forms of these (Zhang et al., 2007), were investigated.
Briefly, LRRK2 G2019S mutants were mated with a panel of previously described transgenic Drosophila strains that allow for overexpression of wild-type (WT) or constitutively active (CA), forms of the Rab genes (Zhang et al., 2007), using a standard balancer chromosome-based mating scheme. Co-expression of a majority of these Rab transgenes with LRRK2 within dopamine neurons produced no effect on the survival of animals co-expressing LRRK2 G2019S (FIG. 4A; Table 4).
(§1) Drosophila were cultured by standard methods on yeast-cornmeal-agar medium at 25° C. Wild-type and mutant G2019S LRRK2 transgenes were expressed specifically in catecholaminergic neurons, including dopamine neurons, using the Gal4-UAS system described (Fischer et al., 1988). Driver lines used include OK6 (motor neuron), Gmr (eye), G14 (muscle), TH (dopaminergic neuron), and DDC (dopaminergic neuron). A UAS-GFP::nuclear localization sequence (NLS) marker was used to visualize nucleii of cells in which trangenes were expressed (stock 4775 (w 1118; P{UAS-GFP.nls}14), Drosophila Stock Center, Bloomington, Ind.). For the RAB screen, UAS-LRRK2 (G2019S) transgenic Drosophila, crossed with the TH-Gal4 driver, were screened against a UAS-Rab transgenic library (Zhang et al., 2007). Crossings were typically performed using standard balancer chromosome techniques. To generate strains in which the homozygous LRRK2 transgene and another (Driver or marker) transgene lay on the same chromosome (III), genetic recombination was using standard techniques. Adult Drosophila mushroom bodies were dissected as in (Wu and Luo, 2006) and imaged immediately, without fixation, using a Zeiss LSM510 Meta confocal fluorescent microscope. For mortality curves, transgenic Drosophila surviving through adult metamorphosis were counted daily, from the day of pupal eclosion onward. Locomotion deficits were assessed by methods know in the art.

The subject of data set [2] is Lrrk mutant (−/−) Drosophila. Put plainly: Negative geotaxis analysis of lrrk mutant Drosophila. It is filed as in vivo. The note with it: pan-neuronal expression in lrrk mutant (−/−) Drosophila. Here is the method:
FIG. 11 is a bar graph showing a negative geotaxis analysis of lrrk mutant Drosophila. […] Bars represent Mean times to climb 10 cm upward in a cylinder are represented. Error bars are SEM. ***: p<0.001, for comparison with the non-transgenic group by ANOVA (df=3, F=13.14) followed by Tukey HSD post hoc analysis.
as §1, with “To generate strains in which the homozygous LRRK2 transgene and another (Driver or marker) transgene lay on the same chromosome (III), genetic recombination was using standard techniques. Adult Drosophila mushroom bodies were dissected as in (Wu and Luo, 2006) and imaged immediately, without fixation, using a Zeiss LSM510 Meta confocal fluorescent microscope.” left out

The test system of data set [3] is rat primary cortical neurons. Nature of the data set: Neurite length assay in transfected primary cortical neuron cultures. It is filed as cell-based. The conditions noted are these: co-transfection with LRRK2 G2019S (0.5 μg/well); test vector 1 μg/well. From the text:
As 5 candidate genes are present within the PARK16 locus (SLC45A3, NUCKS, RAB7L1, SLC41A1, and PM20D1), each of the genes were experimentally screened for a functional interaction with LRRK2 (FIG. 2A). A previously-described primary rat neuron in vitro culture model was used, in which transient expression of familial PD-associated LRRK2 G2019S or R1441C mutant alleles leads to a marked reduction in neurite process length (MacLeod et al., 2006). […] RAB7L1 is a small cytosolic GTPase, structurally distinct from RAB7 despite its name (also known as RAB29) (Shimizu et al., 1997). […] But the function of RAB7L1 in CNS neurons remains unknown. Orthologues of RAB7L1 in other organisms, including C. elegans Glo-1 and Drosophila melanogaster Lighloid, have been implicated in trafficking to lysosome-related organelles (Hermann et al., 2005) and in the regulation of neurite process length (Grill et al., 2007), reminiscent of LRRK2 mutant phenotypes (MacLeod et al., 2006). Thus this gene was of particular interest.
Sprague-Dawley rat or mouse PI primary dissociated cortical cultures were prepared and transfected essentially as described (Xia et al., 1996) with the following modifications: cells were plated at high density, approximately 250,000 cells/cm2, in 24-well plates with 500 ul medium/well. Culture medium used for plating cells was Neurobasal-A supplemented with 2% B-27 and 10% FBS. At 1 day after plating, medium was changed to reduced serum (1% FBS+added antimitotic agents: 70 μM uridine and 25 μM 5-fluorodeoxyuridine) and replaced weekly thereafter; for transfections no DMSO was added to the transfection mixture, cells were not subjected to glycerol shock, and a total of 3 μg plasmid DNA was used per well. Cells were fixed in 4% PFA and immunostained with mouse α-RAB7L1 (Santa Cruz, 1:100), and rabbit monoclonal α-LRRK2 (Michal J. Fox Foundation MJFF4, 1:100), then with appropriate fluorescent secondaries (Jackson, 1:1000-2000). Neurite length and neurite puncta (defined as swellings greater than 2 um in diameter) were counted for at least 20 neurons per condition. Mean puncta number per neuron was normalized to total average neurite length versus wild-type LRRK2 transfected cells. Fluorescent microscopy was performed using a Nikon TE 2000-S microscope and a Zeiss LSM510 Meta confocal microscope. Images were analyzed using Image-Pro Plus (Mediacybernetics) software version 5.1.0.20.

“G2019S: human familial PD-associated G2019S-mutant LRRK2 transgene”: the mean lifespan in data set [1] (dopamine neuron-selective expression of the LRRK2 transgene alone (TH or DDC Gal4 driver)) turned out to be 4.8 days. For the same molecule, in data set [2], the “defective negative geotaxis (time to climb 10 cm)” value is recorded as “can be rescued”. In the case of “SLC41A1: PARK16 locus gene overexpression vector”, the “LRRK2 mutation-induced neurite length phenotype” value in data set [3] is given as “failed to rescue”. With “human LRRK2 WT: wild-type human LRRK2 transgene”, the “phenotype on transgenic expression” value in data set [1] (dopamine neuron-selective expression of the LRRK2 transgene alone) was “did not lead to a discernible phenotype”. In addition, in data set [2], the “defective negative geotaxis (time to climb 10 cm)” value is recorded as “can be rescued”.

B1: SLC45A3: PARK16 locus gene overexpression vector (protein, UniProt Q96JT2 1-553, looked up)
Solute carrier family 45 …: MVQRLWVSRLLRHRKAQLLLVNLLTFGLEVCLAAGITYVPPLLLEVGVEEKFMTMVLGIGPVLGLVCVPLLGSASDHWRGRYGRRRPFIWALSLGILLSLFLIPRAGWLAGLLCPDPRPLELALLILGVGLLDFCGQVCFTPLEALLSDLFRDPDHCRQAYSVYAFMISLGGCLGYLLPAIDWDTSALAPYLGTQEECLFGLLTLIFLTCVAATLLVAEEAALGPTEPAEGLSAPSLSPHCCPCRARLAFRNLGALLPRLHQLCCRMPRTLRRLFVAELCSWMALMTFTLFYTDFVGEGLYQGVPRAEPGTEARRHYDEGVRMGSLGLFLQCAISLVFSLVMDRLVQRFGTRAVYLASVAAFPVAAGATCLSHSVAVVTASAALTGFTFSALQILPYTLASLYHREKQVFLPKYRGDTGGASSEDSLMTSFLPGPKPGAPFPNGHVGAGGSGLLPPPPALCGASACDVSVRVVVGEPTEARVVPGRGICLDLAILDSAFLLSQVAPSLFMGSIVQLSQSVTAYMVSAAGLGLVAIYFATQVVFDKSDLAKYSA
As for B1, in data set [3], the “LRRK2 mutation-induced neurite length phenotype” value was “failed to rescue”.

B2: Rab7WT: TH-driven Drosophila Rab GTPase transgene, wild-type Rab7 (protein, UniProt O76742 1-207, looked up)
Ras-related protein Rab7: MSGRKKSLLKVIILGDSSVGKTSLMNQYVNKRFSNQYKATIGADFCTKEVVVNDRVVTMQIWDTAGQERFQSLGVAFYRGADCCVLVYDVTAPNSFKNLDSWRDEFLIQASPRDPDHFPFVVLGNKVDLDNRQVSTRRAQQWCQSKNDIPYYETSAKEGINVEMAFQVIAKNALELEAEAEVINDFPDQITLGSQNNRPGNPDNCQC
Consider B2, for which, in data set [1] (Rab transgene co-expressed with LRRK2 G2019S in dopamine neurons), the mean lifespan stood at 14.3 days. Besides, in data set [1], the “Average adult lifespan” value was 10.2 days and the “rescue of the LRRK2 G2019S premature mortality phenotype (survival)” value was “statistically significant—albeit much weaker—survival benefit”.

B3: NUCKS1: PARK16 locus gene overexpression vector (protein, UniProt Q9H1E3 1-243, looked up)
Nuclear ubiquitous casein and …: MSRPVRNRKVVDYSQFQESDDADEDYGRDSGPPTKKIRSSPREAKNKRRSGKNSQEDSEDSEDKDVKTKKDDSHSAEDSEDEKEDHKNVRQQRQAASKAASKQREMLMEDVGSEEEQEEEDEAPFQEKDSGSDEDFLMEDDDDSDYGSSKKKNKKMVKKSKPERKEKKMPKPRLKATVTPSPVKGKGKVGRPTASKASKEKTPSPKEEDEEPESPPEKKTSTSPPPEKSGDEGSEDEAPSGED
With B3, the “LRRK2 mutation-induced neurite length phenotype” value in data set [3] is given as “failed to rescue”.

B4: PM20D1: PARK16 locus gene overexpression vector (protein, UniProt Q6GTS8 26-502, looked up)
N-fatty-acyl-amino acid …: MGPRSGEHQRASRIPSQFSKEERVAMKEALKGAIQIPTVTFSSEKSNTTALAEFGKYIHKVFPTVVSTSFIQHEVVEEYSHLFTIQGSDPSLQPYLLMAHFDVVPAPEEGWEVPPFSGLERDGIIYGRGTLDDKNSVMALLQALELLLIRKYIPRRSFFISLGHDEESSGTGAQRISALLQSRGVQLAFIVDEGGFILDDFIPNFKKPIALIAVSEKGSMNLMLQVNMTSGHSSAPPKETSIGILAAAVSRLEQTPMPIIFGSGTVVTVLQQLANEFPFPVNIILSNPWLFEPLISRFMERNPLTNAIIRTTTALTIFKAGVKFNVIPPVAQATVNFRIHPGQTVQEVLELTKNIVADNRVQFHVLSAFDPLPVSPSDDKALGYQLLRQTVQSVFPEVNITAPVTSIGNTDSRFFTNLTTGIYRFYPIYIQPEDFKRIHGVNEKISVQAYETQVKFIFELIQNADTDQEPVSHLHKL
On to B4, for which the “LRRK2 mutation-induced neurite length phenotype” value in data set [3] was “failed to rescue”.

B5: RAB3A: Rab family member expression vector (protein, UniProt P20336 1-220, looked up)
Ras-related protein Rab-3A: MASATDSRYGQKESSDQNFDYMFKILIIGNSSVGKTSFLFRYADDSFTPAFVSTVGIDFKVKTIYRNDKRIKLQIWDTAGQERYRTITTAYYRGAMGFILMYDITNEESFNAVQDWSTQIKTYSWDNAQVLLVGNKCDMEDERVVSSERGRQLADHLGFEFFEASAKDNINVKQTFERLVDVICEKMSESLDTADPAVTGAKQGPQLSDQQVPPHQDCAC
As to B5, in data set [3], the “LRRK2 mutation-induced neurite length phenotype” value is “failed to rescue the phenotype”.

B6: Rab7L1WT: TH-driven wild-type Drosophila RAB7L1 orthologue (termed lightoid) transgene (protein)
chain: MGSRDHLFKVLVVGDAAVGKTSLVQRYSQDSFSKHYKSTVGVDFALKVLQWSDSEMVRLQLWDIAGQERFTSMTRLYYRDASACVIMFDVTNATTFSNSQRWKQDLDSKLTLPSGEPVPCLLLANKSDLSPWAVSRDQIDRFSKENGFTGWTETSVKENKNINEAMRVLVEKMMNNSREDIMSSSTQGNYINLQTKPSPGWTCC
modifications: left off: large carriers
notes: TH-driven wild-type Drosophila RAB7L1 orthologue (termed lightoid) transgene
In the case of B6, in data set [1], the “Average adult lifespan” value stood at 23.3 days and the “rescue of the LRRK2 G2019S premature mortality phenotype (survival)” value was “dramatic rescue”.

B7: RAB5A: Rab family member expression vector (protein, UniProt P20339 1-215, looked up)
Ras-related protein Rab-5A: MASRGATRPNGPNTGNKICQFKLVLLGESAVGKSSLVLRFVKGQFHEFQESTIGAAFLTQTVCLDDTTVKFEIWDTAGQERYHSLAPMYYRGAQAAIVVYDITNEESFARAKNWVKELQRQASPNIVIALSGNKADLANKRAVDFQEAQSYADDNSLLFMETSAKTSMNVNEIFMAIAKKLPKNEPQNPGANSARGRGVDLTEPTQPTRNQCCSN
For B7, the “LRRK2 mutation-induced neurite length phenotype” value in data set [3] was “failed to rescue the phenotype”.
